From patent publication US5912120A, “Cloning, expression and diagnosis of human cytochrome P450 2C19: the principal determinant of s-mephenytoin metabolism” (The United States of America as represented by the …, priority 1994, dated 1999)

How the values were obtained:
[1] = target: cytochrome P450 2C9, allelic variant clone 25 (Leu359) (human)
[2] = target: cytochrome P450 2C9, allelic variant clone 65 (Ile359) (human)
[3] = Mephenytoin 4'-hydroxylase assay, purified recombinant P450 2C in reconstituted system (Table IV); format: biochemical; conditions: for R/S Ratio / Mephenytoin 4'-Hydroxylase Activity S: purified P450, reconstituted system; for Mephenytoin 4'-Hydroxylase Activity S / Mephenytoin 4'-Hydroxylase Activity R: triplicate, means ± SE, blank not subtracted
Method: Recombinant yeast microsomes were prepared from a 10-12 l culture, and recombinant P450s were purified by aminooctylsepharose chromatography as described by Iwasaki et al., J. Biol. Chem. 226:3380-3382 (1991). The Emulgen was then removed from protein by adsorption of the protein to a 4 g hydroxylapatite column (Hypatite C, Clarkson Chemical Company, Williamsport, Pa.) equilibrated with 10 mM potassium phosphate buffer (pH 7.2), 20% glycerol, 0.1 mM EDTA, and 0.1 mM DTT and washing the column with the same buffer until the absorbance at 280 nm returned to zero. The P450 was then eluted with […], and dialyzed overnight against 100 mM potassium phosphate buffer (pH 7.4, 20% glycerol and 0.1 mM EDTA. Absolute and CO difference spectra of purified P450s were determined in the same buffer but containing 0.2% Emulgen and 0.5% cholate.
Mephenytoin 4'-hydroxylase activity was measured by a modification of the radiometric HPLC assay described by Shimada et al., J. Biol. Chem. 261:909-921 (1986), as described below. Purified or recombinant yeast microsomes (10-50 pmol) were preincubated with dilauroylphosphatidylcholine (15 μg per 50 pmol P450), P450 reductase (500 U per […] P450), and human cytochrome b5 (2:1 molar ratio when added). The reconstituted mixture was preincubated for 5 min at 37° C., and then placed on ice. A final concentration of 0.4 mM radiolabelled S- or R-mephenytoin (20.7 mCi/mM and 20.9 mCi/mMol) was added to 50 mM HEPES buffer (pH 7.4) containing 0.1 mM EDTA and 1.5 mM MgCl2 for recombinant 2C proteins. The mixture was then incubated at 37° with shaking for 3 min, and the reaction started with the addition of 2mM NADPH and terminated after 30 min with an equal volume of methanol. Cytochrome b5 was not included in all CYP2C18 reactions, since it had no effect or produced a slight inhibition on the activity of this CYP protein. Reaction volumes were generally 0.25 ml except when the volume of recombinant purified cytochrome or yeast microsomes was greater than 50 μl. In these cases, the volume was increased to 0.5 ml to limit the volume of glycerol from the purified preparation to <4% of the final volume.
At the end of the incubation period, the reactions were terminated with an equal volume of methanol. The incubation mixture was centrifuged at 10,000 g for 10 min and an aliquot assayed directly using HPLC without extraction. Samples with particularly low activity were concentrated by lyophilization and redissolved in a small volume of methanol:water (1:1) before assay. The HPLC system consisted of a reverse phase C18 (10 μm) Versapak, 300 mm×4.1 mm column (Altech Associates, Deerfield, Ill.) using an isocratic solvent consisting of methanol:water (45:55) with a flow rate was kept of 1 ml/min for 25 min. Detection of radioactive peaks was accomplished using an on-line Flow-One radiochemical detector (Radiomatic Instruments Co., Tampa, Fla. Detection of the unlabeled 4'-hydroxymephenytoin authentic standard was performed using an on-line multiwavelength UV detector at both 211 and 230 nm.
Recombinant P450s were purified from yeast microsomes and assays performe

[4] = Mephenytoin 4'-hydroxylase assay, recombinant human CYP2C yeast microsomes (Table III); format: biochemical; conditions: for Mephenytoin 4'-Hydroxylase Activity S: recombinant yeast microsomes + P450 reductase, phospholipid, cytochrome b5 2:1, 0.4 mM substrate, HEPES pH 7.4, 37° C. 30 min, means ± SE; for R/S Ratio: with cytochrome b5
Method: (§1) Purified or recombinant yeast microsomes (10-50 pmol) were preincubated with dilauroylphosphatidylcholine (15 μg per 50 pmol P450), P450 reductase (500 U per 50 mol P450), and human cytochrome b5 (2:1 molar ratio when added). The reconstituted mixture was preincubated for 5 min at 37° C., and then placed on ice. A final concentration of 0.4 mM radiolabelled S- or R-mephenytoin (20.7 mCi/mM and 20.9 mCi/mMol) was added to 50 mM HEPES buffer (pH 7.4) containing 0.1 mM EDTA and 1.5 mM MgCl2 for recombinant 2C proteins. The mixture was then incubated at 37° with shaking for 3 min, and the reaction started with the addition of 2mM NADPH and terminated after 30 min with an equal volume of methanol. […] Reaction volumes were generally 0.25 ml except when the volume of recombinant purified cytochrome or yeast microsomes was greater than 50 μl. In these cases, the volume was increased to 0.5 ml to limit the volume of glycerol from the purified preparation to <4% of the final volume.

[5] = Tolbutamide hydroxylase assay, recombinant human CYP2C yeast microsomes (Table V); format: biochemical; conditions: for Tolbutamide Hydroxylase Activity (nmol/min/nmol P450) / Tolbutamide Hydroxylase Activity (nmol/min/mg protein): 1 mg yeast microsomal protein + purified P450 reductase (1,000 units); for Tolbutamide Hydroxylase Activity (nmol/min/mg protein): means ±SE
Method: Tolbutamide hydroxylase activity was measured according to Knodell et al., J. Pharmacol. Exper. […] Yeast microsomes (1 mg protein) were preincubated with 300 pmol hamster P450 reductase in 0.2 ml of the incubation buffer (below) for 3 min at 37° C. The reaction was then placed on ice and incubated in 0.2 ml of 50 mM HEPES buffer (pH 7.4) containing 1.5 mM MgCl2, 0.1 mM EDTA in a final volume of 1 ml and 1 mM sodium tolbutamide. The reaction was initiated with 0.5 mM NADPH. Human liver microsomes (0.22 mg protein) were incubated without reductase. Incubations with reconstituted recombinant P450s contained 50 pmol purified P450 enzyme, 150 pmol P450 reductase, and 15 μg dilauroylphosphatidyl-choline, and were performed in 100 mM potassium phosphate buffer (pH 7.4). Reactions were terminated after 60 min at 37° C. by the addition of 50 μl of 4N HCl, followed by extraction with 3 ml of water-saturated ethyl acetate. The ethyl acetate extracts were dried under nitrogen at 40° C., the residue resolubilized in 200 μl methanol, and 4-hydroxytolbutamide then assayed using HPLC by injecting 50 μl of the solubilized extract onto a μBONDAPAK C18 column (4.6×300 mm) using 0.05% phosphoric acid, pH 2.6: acetonitrile (6:4, v/v) as the mobile phase with a flow rate of 1 ml/min. The column eluate was monitored at 230 nm and rates of product formation were determined from standard curves prepared by adding varying amounts of 4-hydroxytolbutamide to incubations conducted without NADPH. […] Samples were analyzed in triplicate.

[6] = Mephenytoin 4'-hydroxylase assay, recombinant human CYP2C yeast microsomes (Table III); format: biochemical; conditions: recombinant yeast microsomes + P450 reductase, phospholipid, cytochrome b5 2:1; 0.4 mM substrate, HEPES pH 7.4, 37° C. 30 min; means ± SE
Method: as §1

[7] = Tolbutamide hydroxylase assay, purified recombinant P450 2C (Table IV); format: biochemical; conditions: purified P450, reconstituted; blank (22 ± 5) subtracted; means ± SE
Method: Tolbutamide hydroxylase activity was measured according to Knodell et al., J. Pharmacol. Exper. Ther. 241:1112-1119 (1987), with several modifications. Yeast microsomes (1 mg protein) were preincubated with 300 pmol hamster P450 reductase in 0.2 ml of the incubation buffer (below) for 3 min at 37° C. The reaction was then placed on ice and incubated in 0.2 ml of 50 mM HEPES buffer (pH 7.4) containing 1.5 mM MgCl2, 0.1 mM EDTA in a final volume of 1 ml and 1 mM sodium tolbutamide. The reaction was initiated with 0.5 mM NADPH. Human liver microsomes (0.22 mg protein) were incubated without reductase. Incubations with reconstituted recombinant P450s contained 50 pmol purified P450 enzyme, 150 pmol P450 reductase, and 15 μg dilauroylphosphatidyl-choline, and were performed in 100 mM potassium phosphate buffer (pH 7.4). Reactions were terminated after 60 min at 37° C. by the addition of 50 μl of 4N HCl, followed by extraction with 3 ml of water-saturated ethyl acetate. […] The column eluate was monitored at 230 nm and rates of product formation were determined from standard curves prepared by adding varying amounts of 4-hydroxytolbutamide to incubations conducted without NADPH. […] Samples were analyzed in triplicate.

Molecule | metabolism of tolbutamide [1] [fold] | metabolism of tolbutamide [2] [fold] | R/S Ratio [3] | Mephenytoin 4'-Hydroxylase Activity S [3] [nmol/min/nmol P450] | Mephenytoin 4'-Hydroxylase Activity R [3] [nmol/min/nmol P450] | Mephenytoin 4'-Hydroxylase Activity S [4] [nmol/min/nmol P450] | R/S Ratio ([4]; recombinant yeast microsomes) | Tolbutamide Hydroxylase Activity (nmol/min/nmol P450) ([5]; adjusted for P450 content) | turnover number for tolbutamide higher than the Leu^359 allele ([5]; recombinant microsomes, adjusted for P450 content) [fold] | Mephenytoin 4'-Hydroxylase Activity R [6] [nmol/min/nmol P450] | Tolbutamide Hydroxylase Activity [7] | Tolbutamide Hydroxylase Activity (nmol/min/mg protein) [5] [nmol/min/mg protein] | S-mephenytoin 4'-hydroxylation turnover number higher than that of recombinant 2C9, 2C18 or 2C8 ([3]; purified, reconstituted system) | stereospecificity of 4'-hydroxylation of mephenytoin ([3]; purified, reconstituted system (Table IV)) | S-mephenytoin 4'-hydroxylase turnover number higher than reported for P450MP purified from human liver ([3]; versus Srivastava et al. (1991)) | S-mephenytoin 4'-hydroxylation turnover number higher than that of human liver microsomes ([3]; versus human liver microsomes) | rate of S-hydroxylation higher than that of R-hydroxylation ([4]; recombinant yeast microsomes) | stereospecificity of 4'-hydroxylation of mephenytoin ([4]; recombinant yeast microsomes (Table III)) | Mephenytoin 4'-Hydroxylase Activity S ([4]; listed as 2C19) | tolbutamide hydroxylase activity compared with 2C9 ([5]; recombinant yeast microsomes, in words)
exogenous P450 reductase (enzyme) | > 10 | > 10 | – | – | – | – | – | – | – | – | – | – | – | – | – | – | – | – | – | –
2C9-Ile^359 (65): recombinant human P450 2C9 allelic variant, clone 65, expressed in yeast (protein, UniProt P11712 1-490, looked up) Cytochrome P450 2C9: MDSLVVLVLCLSCLLLLSLWRQSSGRGKLPPGPTPLPVIGNILQIGIKDISKSLTNLSKVYGPVFTLYFGLKPIVVLHGYEAVKEALIDLGEEFSGRGIFPLAERANRGFGIVFSNGKKWKEIRRFSLMTLRNFGMGKRSIEDRVQEEARCLVEELRKTKASPCDPTFILGCAPCNVICSIIFHKRFDYKDQQFLNLMEKLNENIKILSSPWIQICNNFSPIIDYFPGTHNKLLKNVAFMKSYILEKVKEHQESMDMNNPQDFIDCFLMKMEKEKHNQPSEFTIESLENTAVDLFGAGTETTSTTLRYALLLLLKHPEVTAKVQEEIERVIGRNRSPCMQDRSHMPYTDAVVHEVQRYIDLLPTSLPHAVTCDIKFRNYLIPKGTTILISLTSVLHDNKEFPNPEMFDPHHFLDEGGNFKKSKYFMPFSAGKRICVGEALAGMELFLFLTSILQNFNLKSLVDPKNLDTTPVVNGFASVPPFYQLCFIPV | – | – | 0.77 | 0.081 ± 0.006 | 0.063 ± 0.003 | 0.043 ± 0.000 | 0.9 | 3.4 ± 0.15 | 3 | 0.041 ± 0.005 | 122 + 29 pmol/min/nmol P450 | – | – | – | – | – | – | – | – | –
2C8: recombinant human cytochrome P450 2C8 (clones 7b and 7c) expressed in yeast (protein) MEPFVVLVLCLSFMLLFSLWRQSCRRRKLPPGPTPLPIIGNMLQIDVKDICKSFTNFSKVYGPVFTVYFGMNPIVVFHGYEAVKEALIDNGEEFSGRGNSPISQRITKGLGIISSNGKRWKEIRRFSLTNLRNFGMGKRSIEDRVQEEAHCLVEELRKTKASPCDPTFILGCAPCNVICSVVFQKRFDYKDQNFLTLMKRFNENFRILNSPWIQVCNNFPLLIDCFPGTHNKVLKNVALTRSYIREKVKEHQASLDVNNPRDFMDCFLIKMEQEKDNQKSEFNIENLVGTVADLFVAGTETTSTTLRYGLLLLLKHPEVTAKVQEEIDHVIGRHRSPCMQDRSHMPYTDAVVHEIQRYSDLVPTGVPHAVTTDTKFRNYLIPKGTTIMALLTSVLHDDKEFPNPNIFDPGHFLDKNGNFKKSDYFMPFSAGKRICAGEGLARMELFLFLTTILQNFNLKSVDDLKNLNTTAVTKGIVSLPPSYQICFIPV | – | – | 0.4 | 0.057 ± 0.009 | 0.023 ± 0.004 | 0.037 ± 0.001 | 0.4 | 0.11 ± 0.003 | – | 0.016 ± 0.001 | 12 ± 4 pmol/min/nmol P450 | 8.5 ± 0.2 | – | – | – | – | – | – | – | –
2C19 (11a): recombinant human cytochrome P450 2C19, clone 11a, amino acid sequence SEQ. ID. No. 1, expressed in yeast (protein) MDPFVVLVLCLSCLLLLSIWRQSSGRGKLPPGPTPLPVIGNILQIDIKDVSKSLTNLSKIYGPVFTLYFGLERMVVLHGYEVVKEALIDLGEEFSGRGHFPLAERANRGFGIVFSNGKRWKEIRRFSLMTLRNFGMGKRSIEDRVQEEARCLVEELRKTKASPCDPTFILGCAPCNVICSIIFQKRFDYKDQQFLNLMEKLNENIRIVSTPWIQICNNFPTIIDYFPGTHNKLLKNLAFMESDILEKVKEHQESMDINNPRDFIDCFLIKMEKEKQNQQSEFTIENLVITAADLLGAGTETTSTTLRYALLLLLKHPEVTAKVQEEIERVIGRNRSPCMQDRGHMPYTDAVVHEVQRYIDLIPTSLPHAVTCDVKFRNYLIPKGTTILTSLTSVLHDNKEFPNPEMFDPRHFLDEGGNFKKSNYFMPFSAGKRICVGEGLARMELFLFLTFILQNFNLKSLIDPKDLDTTPVVNGFASVPPFYQLCFIPV | – | – | 0.03 | 6.17 ± 0.24 | 0.19 ± 0.04 | 4.6 ± 0.3 | 0.03 | – | – | 0.014 ± 0.02 | – | 18.4 ± 2.4 | 50-100 times | stereospecific for the S-enantiomer | ~ 30 times | at least 10 times | at least 30 fold | stereospecific | ~ 5 nmol/min/nmol P450 | comparable to that of 2C9
